Assay results taken from the supplement of paper PMC9170038.

System: MS2 coat protein
Assay: apparent KD of MS2 coat protein; higher = weaker reporter binding
Conditions: Eterna round: R107; input ligand: arginine 13.2 mM
In short: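 On-chip transcription from Illumina sequencing clusters produced the designed RNA switches. These were titrated with SNAP-549-labelled MS2 coat protein (twofold steps, 0.7 or 1.5 nM to 3 µM) in 100 mM Tris-HCl pH 7.5, 80 mM KCl, 4 mM MgCl2, with or without constant ligand. The apparent KD given is the per-design median of normalised cluster binding-curve fits.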

Which “apparent KD of MS2 coat protein” value does the source give for “UAUCCACAUGAGGAUCACCCAUGUAGGGAAGGAGCGGUGGAUGCACCAGGUAGGUCGCCUUGCUGAGGACAGCCGGUGGAUUCGU [Exclusion - Arginine A (Freestyle 27)]” here?
Its value is 0.029 µM.

With “UUUAACGGGCACGAUACCAGCGACAUGAGGAUCACCCAUGUAAACGCGGUGACGGUCUGUUGCCCUUGGCAGCGUGCAAAAUAAU [Zaquarar]” as the sequence, how does the “apparent KD of MS2 coat protein” value read?
The value was 0.043 µM.

For “UCACAUGAGGAUCACCCAUGUACAGGCGAUACCAGCCGUACAUUGGGCCCUUGGCAGCGCAUCGAGACCUUUAUAAGCACCUCGG [Ceusbi]”, which “apparent KD of MS2 coat protein” value is on record?
Its value is 0.0245 µM.

For “ACAUGAGGAUCACCCAUGUUUGUUGUUCCUCGAGGACCGGUACGGCCGCCACUCGAACGAGUGGCACGCGAGUGCGCACUCGCGU [aPa]”, which “apparent KD of MS2 coat protein” value is on record?
Its value is 0.0139 µM.

With “AUACGUAACAGAAGGAGCGCACCGACAUGAGGAUCACCCAUGUGGGAUGGGACUCUUUUGGUGCAGGUAGGUCGCUGUCACGCAU [Beatattian]” as the sequence, how does the “apparent KD of MS2 coat protein” value read?
Its value is 0.0237 µM.

Which “apparent KD of MS2 coat protein” value does the source give for “AGAAUAUAGUCGGCCGCCACUCUACAUACAUGAGGAUCACCCAUGUUUACAUAGUGGAAACACAUGAGGACCGGGACAUAGGCAU [#16 Same State - Tryptophan B]” here?
Its value is 0.00817 µM.

For “ACAUUAGUUGGCGAUACCAGCUAUAGGCCUUCUGGGCGACAUGAGGAUCACCCAUGUGAUGGCCCUUGGCAGCGCUGAUUGAUGU [SSTheo B #29]”, which “apparent KD of MS2 coat protein” value is on record?
Its value is 0.0656 µM.

Which “apparent KD of MS2 coat protein” value does the source give for “AGACAUGAGGAUCACCCAUGUAGUAUGGAUACCAGAUCCAGAUUUAUCCCUUGGCAGCUGUGGUACAGCGAUGGAUCGCUCCUAG [Exclusion - Theophylline A (Freestyle 11)]” here?
The value was 0.0226 µM.

With “CGACGAGACCUGGAUACCAGCGACAUGAGGAUCACCCAUGUAUGUGGAUCAGCCAUGAUAUGCCCUUGGCAGCCACCGAGGUCGG [PPPMULLIN]” as the sequence, how does the “apparent KD of MS2 coat protein” value read?
The value was 0.00781 µM.

With “AUCCAUAGCCGAAGGAGCGCAGUAGGAUGACAUGAGGAUCACCCAUGUGUGUGAUGUGGAUUGCAGGUAGGUCGCGGAGUGGGAU [Exclusion - Arginine B (Freestyle 6)]” as the sequence, how does the “apparent KD of MS2 coat protein” value read?
The value was 0.035 µM.

With “AACAUGAGGAUCACCCAUGUCAUGUUGGAUACCAGCCAAUAAUAAGGCCCUUGGCAGCUAUAGAUCGAUGAUCCAUGAGGAUCAC [Exclusion Theophylline A]” as the sequence, how does the “apparent KD of MS2 coat protein” value read?
Its value is 0.0276 µM.

“UGGGUCGGAUGAGGAAAUUGUCCGACGUAUCGAGGACCGGUACGGCCGCCACUCGGUUGUACAUGAGGAUCACCCAUGUCAGGGU [#1 Same State - Tryptophan A Attempt #15 (HarryS)]” was tested. Which “apparent KD of MS2 coat protein” value did it give?
The value was 0.194 µM.

“ACAUGAGGAUCACCCAUGUGAAGCAGGGUACGAGGACCGGUACGGCCGCCACUCGAGGAUUAUACCGAGUGAAUGGCAACGAUGU [whbob_Ex_trypto A_2s18]” was tested. Which “apparent KD of MS2 coat protein” value did it give?
The value was 0.0132 µM.

Which “apparent KD of MS2 coat protein” value does the source give for “UAUAUAUAUCACUAACUGUUCUUGAGGUCUCGAGGACCGGUACGGCCGCCACUCGUACCGCCUCACAUGAGGAUCACCCAUGUCC [XTryp A #1]” here?
The value was 0.0522 µM.

With “UGUAAUGGGAUCAACCCAUGAGAGUCUGAAGGAGCGAUCGUAAGAUCAGGUAGGUCGCGGGAGACAUGAGGAUCACCCAUGUAUA [#23 Exclusion - Arginine A]” as the sequence, how does the “apparent KD of MS2 coat protein” value read?
The value was 0.0272 µM.

Which “apparent KD of MS2 coat protein” value does the source give for “AAUUAUCAGUCGGCCGCCACUGACACAUGAGGAUCACCCAUGUAACUUGGGUUAAAUUUACUGAACAGGACCGGGACAAAGGCUA [JR_ExcTryptoB_Sub009]” here?
Its value is 0.114 µM.

Same assay, conditions: Eterna round: R107; input ligand: none

With “UAUCCACAUGAGGAUCACCCAUGUAGGGAAGGAGCGGUGGAUGCACCAGGUAGGUCGCCUUGCUGAGGACAGCCGGUGGAUUCGU [Exclusion - Arginine A (Freestyle 27)]” as the sequence, how does the “apparent KD of MS2 coat protein” value read?
The value was 0.0319 µM.

With “UUUAACGGGCACGAUACCAGCGACAUGAGGAUCACCCAUGUAAACGCGGUGACGGUCUGUUGCCCUUGGCAGCGUGCAAAAUAAU [Zaquarar]” as the sequence, how does the “apparent KD of MS2 coat protein” value read?
Its value is 0.0676 µM.

“AUACGUAACAGAAGGAGCGCACCGACAUGAGGAUCACCCAUGUGGGAUGGGACUCUUUUGGUGCAGGUAGGUCGCUGUCACGCAU [Beatattian]” was tested. Which “apparent KD of MS2 coat protein” value did it give?
The value was 0.0414 µM.

Which “apparent KD of MS2 coat protein” value does the source give for “AGAAUAUAGUCGGCCGCCACUCUACAUACAUGAGGAUCACCCAUGUUUACAUAGUGGAAACACAUGAGGACCGGGACAUAGGCAU [#16 Same State - Tryptophan B]” here?
Its value is 0.0122 µM.

“CGACGAGACCUGGAUACCAGCGACAUGAGGAUCACCCAUGUAUGUGGAUCAGCCAUGAUAUGCCCUUGGCAGCCACCGAGGUCGG [PPPMULLIN]” was tested. Which “apparent KD of MS2 coat protein” value did it give?
The value was 0.0116 µM.

With “AUCCAUAGCCGAAGGAGCGCAGUAGGAUGACAUGAGGAUCACCCAUGUGUGUGAUGUGGAUUGCAGGUAGGUCGCGGAGUGGGAU [Exclusion - Arginine B (Freestyle 6)]” as the sequence, how does the “apparent KD of MS2 coat protein” value read?
Its value is 0.0587 µM.

How did the “apparent KD of MS2 coat protein” value turn out when “UGGGUCGGAUGAGGAAAUUGUCCGACGUAUCGAGGACCGGUACGGCCGCCACUCGGUUGUACAUGAGGAUCACCCAUGUCAGGGU [#1 Same State - Tryptophan A Attempt #15 (HarryS)]” was run?
The value was 0.218 µM.

How did the “apparent KD of MS2 coat protein” value turn out when “ACAUGAGGAUCACCCAUGUGAAGCAGGGUACGAGGACCGGUACGGCCGCCACUCGAGGAUUAUACCGAGUGAAUGGCAACGAUGU [whbob_Ex_trypto A_2s18]” was run?
The value was 0.0141 µM.

Which “apparent KD of MS2 coat protein” value does the source give for “UGUAAUGGGAUCAACCCAUGAGAGUCUGAAGGAGCGAUCGUAAGAUCAGGUAGGUCGCGGGAGACAUGAGGAUCACCCAUGUAUA [#23 Exclusion - Arginine A]” here?
Its value is 0.041 µM.

Same assay, conditions: Eterna round: R107; input ligand: theophylline 20 uM

Which “apparent KD of MS2 coat protein” value does the source give for “UAUCCACAUGAGGAUCACCCAUGUAGGGAAGGAGCGGUGGAUGCACCAGGUAGGUCGCCUUGCUGAGGACAGCCGGUGGAUUCGU [Exclusion - Arginine A (Freestyle 27)]” here?
The value was 0.0596 µM.

For “UUUAACGGGCACGAUACCAGCGACAUGAGGAUCACCCAUGUAAACGCGGUGACGGUCUGUUGCCCUUGGCAGCGUGCAAAAUAAU [Zaquarar]”, which “apparent KD of MS2 coat protein” value is on record?
The value was 0.157 µM.

How did the “apparent KD of MS2 coat protein” value turn out when “UCACAUGAGGAUCACCCAUGUACAGGCGAUACCAGCCGUACAUUGGGCCCUUGGCAGCGCAUCGAGACCUUUAUAAGCACCUCGG [Ceusbi]” was run?
Its value is 0.127 µM.

“ACAUGAGGAUCACCCAUGUUUGUUGUUCCUCGAGGACCGGUACGGCCGCCACUCGAACGAGUGGCACGCGAGUGCGCACUCGCGU [aPa]” was tested. Which “apparent KD of MS2 coat protein” value did it give?
The value was 0.0196 µM.

With “AUACGUAACAGAAGGAGCGCACCGACAUGAGGAUCACCCAUGUGGGAUGGGACUCUUUUGGUGCAGGUAGGUCGCUGUCACGCAU [Beatattian]” as the sequence, how does the “apparent KD of MS2 coat protein” value read?
The value was 0.0994 µM.

For “AGAAUAUAGUCGGCCGCCACUCUACAUACAUGAGGAUCACCCAUGUUUACAUAGUGGAAACACAUGAGGACCGGGACAUAGGCAU [#16 Same State - Tryptophan B]”, which “apparent KD of MS2 coat protein” value is on record?
Its value is 0.0132 µM.

Which “apparent KD of MS2 coat protein” value does the source give for “ACAUUAGUUGGCGAUACCAGCUAUAGGCCUUCUGGGCGACAUGAGGAUCACCCAUGUGAUGGCCCUUGGCAGCGCUGAUUGAUGU [SSTheo B #29]” here?
The value was 0.167 µM.

With “AGACAUGAGGAUCACCCAUGUAGUAUGGAUACCAGAUCCAGAUUUAUCCCUUGGCAGCUGUGGUACAGCGAUGGAUCGCUCCUAG [Exclusion - Theophylline A (Freestyle 11)]” as the sequence, how does the “apparent KD of MS2 coat protein” value read?
The value was 0.034 µM.
